{
  "source": "paper PMC12912276",
  "about": "(Nature cell biology, 2025)",
  "binders": {"B1": {"name": "GST-lamin A-CT (387-664 a.a.) (domain or fragment, human, UniProt P02545 387-664, looked up)", "chain": "LRLSPSPTSQRSRGRASSHSSQTQGGGSVTKKRKLESTESRSSFSQHARTSGRVAVEEVDEEGKFVRLRNKSNEDQSMGNWQIKRQNGDDPLLTYRFPPKFTLKAGQVVTIWAAGAGATHSPPTDLVWKAQNTWGCGNSLRTALINSTGEEVAMRKLVRSVTVVEDDEDEDGDDLLHHHHGSHCSSSGDPAEYNLRSRTVLCGTCGQPADKASASGSGAQVGGPISSGSSASSVTVTRSYRSVGGSGGGSFGDNLVTRSYLLGNSSPRTQSPQNCSIM"}},
  "biological_target": "T1, His-SUMO-C-GB1 (SETD2 region C) (UniProt Q9BYW2 817-1322)",
  "T1 sequence (looked up)": "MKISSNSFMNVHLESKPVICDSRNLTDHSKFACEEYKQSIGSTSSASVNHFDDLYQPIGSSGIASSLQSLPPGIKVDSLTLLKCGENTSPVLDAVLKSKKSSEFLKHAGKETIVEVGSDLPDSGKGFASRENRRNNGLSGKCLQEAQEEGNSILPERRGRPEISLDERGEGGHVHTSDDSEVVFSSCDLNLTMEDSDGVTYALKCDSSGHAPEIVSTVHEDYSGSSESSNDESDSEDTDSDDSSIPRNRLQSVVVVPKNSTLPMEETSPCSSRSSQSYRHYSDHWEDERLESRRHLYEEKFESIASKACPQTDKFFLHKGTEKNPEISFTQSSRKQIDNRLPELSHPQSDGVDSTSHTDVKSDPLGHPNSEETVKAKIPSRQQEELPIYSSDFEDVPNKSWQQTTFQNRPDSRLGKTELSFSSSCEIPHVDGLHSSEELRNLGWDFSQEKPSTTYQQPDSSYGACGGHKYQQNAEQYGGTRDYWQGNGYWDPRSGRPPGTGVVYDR",
  "assay": "pull-down",
  "data": [
    {"binder": "B1", "values": [
      {"measurement": "binding result", "value": "binds"}
    ]}
  ]
}
